Reference: PMC441372

Target: endogenous gelsolin (mouse (endogenous in osteoclasts)) (UniProt P13020)
Assay: co-IP

Sequence of endogenous gelsolin (mouse (endogenous in osteoclasts)) (P13020 26-780): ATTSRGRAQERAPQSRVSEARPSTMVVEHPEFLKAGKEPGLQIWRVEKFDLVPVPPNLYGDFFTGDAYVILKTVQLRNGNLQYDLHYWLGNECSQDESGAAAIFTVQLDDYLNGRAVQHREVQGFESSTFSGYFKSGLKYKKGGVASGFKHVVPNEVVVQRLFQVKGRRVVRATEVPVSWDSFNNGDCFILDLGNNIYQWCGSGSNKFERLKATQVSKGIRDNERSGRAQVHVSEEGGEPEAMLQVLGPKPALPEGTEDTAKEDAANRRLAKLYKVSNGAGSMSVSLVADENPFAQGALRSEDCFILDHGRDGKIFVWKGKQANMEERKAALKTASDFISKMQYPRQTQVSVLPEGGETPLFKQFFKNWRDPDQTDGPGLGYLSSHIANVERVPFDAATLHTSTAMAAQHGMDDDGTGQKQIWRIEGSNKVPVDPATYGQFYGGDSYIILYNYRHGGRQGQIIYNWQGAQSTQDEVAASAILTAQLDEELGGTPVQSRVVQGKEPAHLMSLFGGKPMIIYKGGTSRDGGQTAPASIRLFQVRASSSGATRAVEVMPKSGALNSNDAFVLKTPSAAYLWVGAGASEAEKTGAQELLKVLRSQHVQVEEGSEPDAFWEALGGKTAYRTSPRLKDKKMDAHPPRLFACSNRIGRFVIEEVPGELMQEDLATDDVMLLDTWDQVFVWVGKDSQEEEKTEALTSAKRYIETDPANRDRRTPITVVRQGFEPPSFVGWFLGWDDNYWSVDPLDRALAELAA

gelsolin/actin ratio of the EGTA-resistant complex (untransduced, OPN): 0.82
gelsolin/actin ratio of the EGTA-resistant complex (untransduced, PBS): 1.45
Substance: actin (from UniProt P60710 1-375) (natural protein)
